Measurements as given in patent US9958461B2, “Detection of protein to protein interactions” (THE GOVERNING COUNCIL OF THE UNIVERSITY OF TORONTO, priority 2013, dated 2018).

How the values were obtained:
EGFR-L858R = target: T1, EGFR-L858R (Homo sapiens, UniProt P00533, L858R); test: MaMTH EGFR-interactor screen, lentiviral preys against EGFR-L858R bait (interaction score); assay type: cell-based; settings: MaMTH interaction score of prey with EGFR-L858R bait
T1 construct: with the advantage of testing full-length integral membrane proteins; (GGGGS)2 linker-Cub (human ubiquitin aa 35-76)-GAL4(1-147)-mNFkB(364-550) (C); expressed in transfected cells
Procedure, shortened: (§1)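 5×GAL4UAS-luciferase HEK293T reporter cells were lentivirally infected with preys (MOI ~0.3-0.4) and puromycin-selected ≥48 h. They were then transfected in triplicate with the EGFR bait, and luciferase was read 24 h later. Score is fold-change over averaged negative-control preys; >1 denotes interaction.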

EGFR-Wt [1] = test: MaMTH EGFR-interactor screen, lentiviral preys against EGFR-wildtype bait (interaction score); assay type: cell-based, human; settings: ratio of EGFR-Wt mean to EGFR-L858R mean interaction score
Procedure, shortened: as §1

EGFR-Wt [2] = target: T2, EGFR-Wt (Homo sapiens, UniProt P00533); test: as above; assay type: cell-based; settings: MaMTH interaction score of prey with EGFR-Wt bait, mean
T2 construct: with the advantage of testing full-length integral membrane proteins; (GGGGS)2 linker-Cub (human ubiquitin aa 35-76)-GAL4(1-147)-mNFkB(364-550) (C); expressed in transfected cells
Procedure, shortened: as §1

Row | EGFR-L858R mean (EGFR-L858R) | EGFR-Wt mean (EGFR-Wt [2]) | Molecule | Wt/L858R (EGFR-Wt [1])
1 | 1.89 | 1.67 | SNX9 (protein, UniProt Q9Y5X1 1-595, looked up) Sorting nexin-9: MATKARVMYDFAAEPGNNELTVNEGEIITITNPDVGGGWLEGRNIKGERGLVPTDYVEILPSDGKDQFSCGNSVADQAFLDSLSASTAQASSSAASNNHQVGSGNDPWSAWSASKSGNWESSEGWGAQPEGAGAQRNTNTPNNWDTAFGHPQAYQGPATGDDDDWDEDWDGPKSSSYFKDSESADAGGAQRGNSRASSSSMKIPLNKFPGFAKPGTEQYLLAKQLAKPKEKIPIIVGDYGPMWVYPTSTFDCVVADPRKGSKMYGLKSYIEYQLTPTNTNRSVNHRYKHFDWLYERLLVKFGSAIPIPSLPDKQVTGRFEEEFIKMRMERLQAWMTRMCRHPVISESEVFQQFLNFRDEKEWKTGKRKAERDELAGVMIFSTMEPEAPDLDLVEIEQKCEAVGKFTKAMDDGVKELLTVGQEHWKRCTGPLPKEYQKIGKALQSLATVFSSSGYQGETDLNDAITEAGKTYEEIASLVAEQPKKDLHFLMECNHEYKGFLGCFPDIIGTHKGAIEKVKESDKLVATSKITLQDKQNMVKRVSIMSYALQAEMNHFHSNRIYDYNSVIRLYLEQQVQFYETIAEKLRQALSRFPVM | 0.88
2 | 6.77 | 6.30 | PRKCE (protein, UniProt Q02156 1-737, looked up) Protein kinase C epsilon type: MVVFNGLLKIKICEAVSLKPTAWSLRHAVGPRPQTFLLDPYIALNVDDSRIGQTATKQKTNSPAWHDEFVTDVCNGRKIELAVFHDAPIGYDDFVANCTIQFEELLQNGSRHFEDWIDLEPEGRVYVIIDLSGSSGEAPKDNEERVFRERMRPRKRQGAVRRRVHQVNGHKFMATYLRQPTYCSHCRDFIWGVIGKQGYQCQVCTCVVHKRCHELIITKCAGLKKQETPDQVGSQRFSVNMPHKFGIHNYKVPTFCDHCGSLLWGLLRQGLQCKVCKMNVHRRCETNVAPNCGVDARGIAKVLADLGVTPDKITNSGQRRKKLIAGAESPQPASGSSPSEEDRSKSAPTSPCDQEIKELENNIRKALSFDNRGEEHRAASSPDGQLMSPGENGEVRQGQAKRLGLDEFNFIKVLGKGSFGKVMLAELKGKDEVYAVKVLKKDVILQDDDVDCTMTEKRILALARKHPYLTQLYCCFQTKDRLFFVMEYVNGGDLMFQIQRSRKFDEPRSRFYAAEVTSALMFLHQHGVIYRDLKLDNILLDAEGHCKLADFGMCKEGILNGVTTTTFCGTPDYIAPEILQELEYGPSVDWWALGVLMYEMMAGQPPFEADNEDDLFESILHDDVLYPVWLSKEAVSILKAFMTKNPHKRLGCVASQNGEDAIKQHPFFKEIDWVLLEQKKIKPPFKPRIKTKRDVNNFDQDFTREEPVLTLVDEAIVKQINQEEFKGFSYFGEDLMP | 0.93

The remaining lines, values behind:

Row | Molecule | EGFR-L858R mean (EGFR-L858R) | EGFR-Wt mean (EGFR-Wt [2]) | Wt/L858R (EGFR-Wt [1])
3 | CTNND1 (protein, UniProt O60716 1-968, looked up) Catenin delta-1: MDDSEVESTASILASVKEQEAQFEKLTRALEEERRHVSAQLERVRVSPQDANPLMANGTLTRRHQNGRFVGDADLERQKFSDLKLNGPQDHSHLLYSTIPRMQEPGQIVETYTEEDPEGAMSVVSVETSDDGTTRRTETTVKKVVKTVTTRTVQPVAMGPDGLPVDASSVSNNYIQTLGRDFRKNGNGGPGPYVGQAGTATLPRNFHYPPDGYSRHYEDGYPGGSDNYGSLSRVTRIEERYRPSMEGYRAPSRQDVYGPQPQVRVGGSSVDLHRFHPEPYGLEDDQRSMGYDDLDYGMMSDYGTARRTGTPSDPRRRLRSYEDMIGEEVPSDQYYWAPLAQHERGSLASLDSLRKGGPPPPNWRQPELPEVIAMLGFRLDAVKSNAAAYLQHLCYRNDKVKTDVRKLKGIPVLVGLLDHPKKEVHLGACGALKNISFGRDQDNKIAIKNCDGVPALVRLLRKARDMDLTEVITGTLWNLSSHDSIKMEIVDHALHALTDEVIIPHSGWEREPNEDCKPRHIEWESVLTNTAGCLRNVSSERSEARRKLRECDGLVDALIFIVQAEIGQKDSDSKLVENCVCLLRNLSYQVHREIPQAERYQEAAPNVANNTGPHAASCFGAKKGKDEWFSRGKKPIEDPANDTVDFPKRTSPARGYELLFQPEVVRIYISLLKESKTPAILEASAGAIQNLCAGRWTYGRYIRSALRQEKALSAIADLLTNEHERVVKAASGALRNLAVDARNKELIGKHAIPNLVKNLPGGQQNSSWNFSEDTVISILNTINEVIAENLEAAKKLRETQGIEKLVLINKSGNRSEKEVRAAALVLQTIWGYKELRKPLEKEGWKKSDFQVNLNNASRSQSSHSYDDSTLPLIDRNQKSDKKPDREEIQMSNMGSNTKSLDNNYSTPNERGDHNRTLDRSGDLGDMEPLKGTTPLMQDEGQESLEEELDVLVLDDEGGQVSYPSMQKI | 3.63 | 3.00 | 0.83
4 | CDH5 (protein, UniProt P33151 48-784, looked up) Cadherin-5: DWIWNQMHIDEEKNTSLPHHVGKIKSSVSRKNAKYLLKGEYVGKVFRVDAETGDVFAIERLDRENISEYHLTAVIVDKDTGENLETPSSFTIKVHDVNDNWPVFTHRLFNASVPESSAVGTSVISVTAVDADDPTVGDHASVMYQILKGKEYFAIDNSGRIITITKSLDREKQARYEIVVEARDAQGLRGDSGTATVLVTLQDINDNFPFFTQTKYTFVVPEDTRVGTSVGSLFVEDPDEPQNRMTKYSILRGDYQDAFTIETNPAHNEGIIKPMKPLDYEYIQQYSFIVEATDPTIDLRYMSPPAGNRAQVIINITDVDEPPIFQQPFYHFQLKENQKKPLIGTVLAMDPDAARHSIGYSIRRTSDKGQFFRVTKKGDIYNEKELDREVYPWYNLTVEAKELDSTGTPTGKESIVQVHIEVLDENDNAPEFAKPYQPKVCENAVHGQLVLQISAIDKDITPRNVKFKFILNTENNFTLTDNHDNTANITVKYGQFDREHTKVHFLPVVISDNGMPSRTGTSTLTVAVCKCNEQGEFTFCEDMAAQVGVSIQAVVAILLCILTITVITLLIFLRRRLRKQARAHGKSVPEIHEQLVTYDEEGGGEMDTTSYDVSVLNSVRRGGAKPPRPALDARPSLYAQVQKPPRHAPGAHGGPGEMAAMIEVKKDEADHDGDGPPYDTLHIYGYEGSESIAESLSSLGTDSSDSDVDYDFLNDWGPRFKMLAELYGSDPREELLY | 2.63 | 2.22 | 0.84
5 | GRB10 (protein, UniProt Q13322 1-594, looked up) Growth factor receptor-bound …: MALAGCPDSFLHHPYYQDKVEQTPRSQQDPAGPGLPAQSDRLANHQEDDVDLEALVNDMNASLESLYSACSMQSDTVPLLQNGQHARSQPRASGPPRSIQPQVSPRQRVQRSQPVHILAVRRLQEEDQQFRTSSLPAIPNPFPELCGPGSPPVLTPGSLPPSQAAAKQDVKVFSEDGTSKVVEILADMTARDLCQLLVYKSHCVDDNSWTLVEHHPHLGLERCLEDHELVVQVESTMASESKFLFRKNYAKYEFFKNPMNFFPEQMVTWCQQSNGSQTQLLQNFLNSSSCPEIQGFLHVKELGKKSWKKLYVCLRRSGLYCSTKGTSKEPRHLQLLADLEDSNIFSLIAGRKQYNAPTDHGLCIKPNKVRNETKELRLLCAEDEQTRTCWMTAFRLLKYGMLLYQNYRIPQQRKALLSPFSTPVRSVSENSLVAMDFSGQTGRVIENPAEAQSAALEEGHAWRKRSTRMNILGSQSPLHPSTLSTVIHRTQHWFHGRISREESHRIIKQQGLVDGLFLLRDSQSNPKAFVLTLCHHQKIKNFQILPCEDDGQTFFSLDDGNTKFSDLIQLVDFYQLNKGVLPCKLKHHCIRVAL | 3.49 | 3.14 | 0.90
6 | CAV1 (protein, UniProt Q03135 2-178, looked up) Caveolin-1: SGGKYVDSEGHLYTVPIREQGNIYKPNNKAMADELSEKQVYDAHTKEIDLVNRDPKHLNDDVVKIDFEDVIAEPEGTHSFDGIWKASFTTFTVTKYWFYRLLSALFGIPMALIWGIYFAILSFLHIWAVVPCIKSFLIEIQCISRVYSIYVHTVCDPLFEAVGKIFSNVRINLQKEI | 2.14 | 1.86 | 0.87
